According to paper PMC6907347:

Molecular target: Aβ_(1–40) fibrils (amyloid β peptide 1–40, fibrillar form) (UniProt P05067)
Experiment: SPR; BIAcore 3000, CM5 chip; Aβ 1–40 fibrils immobilised by amine coupling at 2000 RU; ApoE4 injected at 20 μL/min until saturation; degassed PBS pH 7.4, 25 °C

Sequence of Aβ_(1–40) fibrils (amyloid β peptide 1–40, fibrillar form) (P05067 672-711): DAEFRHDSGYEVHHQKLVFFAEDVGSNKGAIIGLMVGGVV

Kd: 5 nM
Substance: recombinant human ApoE4 (Apolipoprotein E, ε4 allele) (from UniProt P02649 19-317) (natural protein)
